Experimental data taken from the Human Domainome abundance scans (Beltran et al. 2025).

B1: Zinc finger MYM-type protein 6, residues 427 to 504; numbered along this chain, O95789 (parent)
chain: KLKCQHCNHLFATKPELLFYKGKMFLFCGKNCSDEYKKKNKVVAMCDYCKLQKIIKETVRFSGVDKPFCSEVCKFLSA

Variants of: B1
Assay: abundance fitness (aPCA) (normalised: wild type 0, dead -1); higher = more abundant; growth selection in yeast, the domain comes from the species named
Conditions: Homo sapiens

Abundance fitness, by site and new letter:
E57: V -0.059 | C 0.163 | Q -0.289 | H 0.272 | A -0.129 | M 0.605 | R -0.181 | L -0.711 | G -0.163 | T 0.026 | D 0.002 | S -0.388
I54: G 0.238 | P 0.442 | W -0.079 | N 0.189 | C 0.675 | A 0.557 | V 0.131 | L 0.128 | S 0.174 | K 0.356 | T 0.104 | Q 0.52 | R 0.157 | M 0.623
F61: K -0.027 | L 0.302 | W 0.313 | H -0.151 | V 0.399 | T 0.348 | D 0.56 | E 0.298 | A 0.209 | S 0.538 | M 0.979 | P -0.308 | G -0.002 | C 0.561 | I 0.679 | R 0.117
K53: C 0.367 | E -0.353 | R -0.308 | F 0.088 | W -0.313 | L -0.351 | A -0.126 | S -0.431 | G -0.148 | P -0.154 | V -0.127 | M -0.189
I55: Q -0.185 | M 0.211 | W -0.623 | A 0.243 | H 0.164 | G 0.16 | S 0.305 | L -0.774 | P 0.281 | V 0.32 | E 0.197 | R -0.055 | K -0.138 | T 0.161
L51: W -0.806 | S 0.567 | M 0.805 | R 0.509 | G 0.484 | K 0.414 | I 0.022 | T 0.551 | A 0.187 | H 0.513 | Q 0.529 | V -0.119 | D 0.345 | C 0.49
Q52: P 0.108 | K 0.51 | A -0.485 | C -0.576 | E 0.446 | T 0.181 | W -0.483 | L -0.128 | R 0.061 | M 0.234 | V 0.173
V59: S -0.314 | K -0.051 | L 0.051 | A -0.078 | Q -0.416 | P -0.246 | R -0.42 | C -0.452 | Y -0.536 | E -0.053 | M 0.461 | W -0.344 | T 0.204 | D -0.246
R60: N 0.366 | G -0.215 | S 0.39 | V -0.093 | M 0.46 | L -0.309 | P 0.116 | Y -0.423 | D 0.342 | K 0.041 | Q 0.014 | E 0.008 | H 0.001 | C -0.059 | W -0.468
S62: G 0.327 | L -0.19 | T -0.141 | Y 0.176 | W -0.696 | C -0.072 | M 0.432 | A 0.054 | Q 0.316 | R -0.01 | V -0.536 | D 0.914 | P -0.325 | H 0.585
K56: M 0.511 | W -0.16 | H -0.113 | P 0.182 | L -0.382 | G -0.192 | C -0.658 | E -0.49 | Q -0.044 | S -0.411 | V -0.071 | R -0.423
T58: K 0.055 | V 0.031 | E -0.277 | R 0.019 | L -0.546 | A -0.585 | W -0.669 | G -0.125 | P -0.328 | Y 0.177 | H 0.511 | D 0.779
K50: R -0.172 | V -0.96 | Y -0.48 | Q 0.164 | S -0.422 | T -0.687 | W -0.709
